Measured values reported in patent US20240369575A1 (Genentech, published 2024).
Like-named read-outs stand apart in the source and are kept apart here.

Experiments:
RIP3 [1] = assay: IP from HT29 WT or RIP1 KO cells with or without TBZ; western blot RIP3
XIAP [2] = target: T1, XIAP (UniProt P98170 1-497); assay: IP from THP1 cells with or without MDP (1 ug/ml, 30 min), 6 M urea lysis; western blot XIAP
Procedure: (§1) THP1 cells were treated with PBS or MDP (1 μg/ml, 30 min). Cells were lysed in 6M urea buffer and immunoprecipitated using indicated RIP2-ubiquitin, K63-linear ubiquitin chain bispecific or control antibodies.

c-IAP1 [3] = target: T2, c-IAP1 (UniProt Q13490 1-618); assay: IP from THP1 cells with or without MDP (1 ug/ml, 30 min), 6 M urea lysis; western blot c-IAP1
Procedure: as §1

RIP1 = target: T3, RIP1; assay: IP with K63-Lin from THP1 cells treated with PBS, TNF, MDP or LPS, 6 M urea lysis; western blot RIP1
T3 construct: also called non-ubiquitinated RIP1 (endogenous, human cell lines); RIPK1
T3 single chain: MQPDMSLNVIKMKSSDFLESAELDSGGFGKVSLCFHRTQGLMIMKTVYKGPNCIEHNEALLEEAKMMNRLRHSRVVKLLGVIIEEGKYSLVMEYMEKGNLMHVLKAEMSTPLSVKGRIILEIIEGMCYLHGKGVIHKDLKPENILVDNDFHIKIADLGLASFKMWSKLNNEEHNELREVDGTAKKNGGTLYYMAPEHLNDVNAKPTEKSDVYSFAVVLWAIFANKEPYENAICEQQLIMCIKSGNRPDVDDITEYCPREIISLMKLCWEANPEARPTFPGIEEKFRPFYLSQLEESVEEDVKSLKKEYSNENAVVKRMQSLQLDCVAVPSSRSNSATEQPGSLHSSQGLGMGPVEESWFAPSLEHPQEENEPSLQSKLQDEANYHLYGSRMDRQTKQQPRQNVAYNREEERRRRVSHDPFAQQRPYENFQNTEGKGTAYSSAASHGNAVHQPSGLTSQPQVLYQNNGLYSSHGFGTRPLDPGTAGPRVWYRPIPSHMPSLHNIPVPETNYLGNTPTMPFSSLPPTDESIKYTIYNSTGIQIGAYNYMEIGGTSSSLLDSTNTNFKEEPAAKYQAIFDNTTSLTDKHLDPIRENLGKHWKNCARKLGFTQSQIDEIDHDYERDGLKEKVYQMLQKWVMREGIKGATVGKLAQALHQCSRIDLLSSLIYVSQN

RIP2 = target: T4, RIP2 (Homo sapiens (Human), UniProt O43353 1-540); assay: immunoprecipitation from cell lysates in 6 M urea buffer, western blot
T4 construct: also called RIPK2

TRAF2 = target: T5, TRAF2 (UniProt Q12933 2-501); assay: as above
T5 sequence (looked up): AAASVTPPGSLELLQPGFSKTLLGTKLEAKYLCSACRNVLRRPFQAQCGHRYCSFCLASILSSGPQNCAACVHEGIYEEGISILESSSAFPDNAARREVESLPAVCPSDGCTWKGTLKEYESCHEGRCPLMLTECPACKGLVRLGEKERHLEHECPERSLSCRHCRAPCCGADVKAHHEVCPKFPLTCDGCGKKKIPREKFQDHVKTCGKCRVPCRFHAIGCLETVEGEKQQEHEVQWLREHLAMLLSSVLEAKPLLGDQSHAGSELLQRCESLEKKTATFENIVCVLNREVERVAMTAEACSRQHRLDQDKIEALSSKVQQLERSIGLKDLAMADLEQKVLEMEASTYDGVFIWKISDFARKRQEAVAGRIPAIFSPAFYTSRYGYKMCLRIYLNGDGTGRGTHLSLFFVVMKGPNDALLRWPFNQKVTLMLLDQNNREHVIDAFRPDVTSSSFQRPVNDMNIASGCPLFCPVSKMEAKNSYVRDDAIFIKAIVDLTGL

RIP3 [4] = assay: IP from HT29 WT or RIP1 KO cells with or without TBZ; western blot RIP3; remark: listed apart in the source
[5] = target: T6, RIP2 modified by mixed and/or branched K63-linked and linear ubiquitin chains (UniProt P0CG48 1-76); assay: IP from THP1 cells untreated or treated with MDP (1 ug/ml, 30 min), 6 M urea lysis; western blot RIP2
T6 construct: mature; also called modified RIP2; K63- and linear chain-ubiquitinated RIP2

c-IAP1 [6] = target: T2, c-IAP1; assay: IP from THP1 cells with or without MDP (1 ug/ml, 30 min), 6 M urea lysis; western blot c-IAP1; remark: listed apart in the source
XIAP [7] = target: T1, XIAP; assay: IP from THP1 cells with or without MDP (1 ug/ml, 30 min), 6 M urea lysis; western blot XIAP (label cut to XIA on the sheet)
XIAP [8] = target: T1, XIAP; assay: immunoprecipitation from MDP-treated THP1 lysates in 6 M urea buffer, western blot
Procedure: as §1

c-IAP1 [9] = target: T2, c-IAP1; assay: as above
Procedure: as §1

Measured: binding result

Chain of RIP3 (chain, as listed by the source limits assumed): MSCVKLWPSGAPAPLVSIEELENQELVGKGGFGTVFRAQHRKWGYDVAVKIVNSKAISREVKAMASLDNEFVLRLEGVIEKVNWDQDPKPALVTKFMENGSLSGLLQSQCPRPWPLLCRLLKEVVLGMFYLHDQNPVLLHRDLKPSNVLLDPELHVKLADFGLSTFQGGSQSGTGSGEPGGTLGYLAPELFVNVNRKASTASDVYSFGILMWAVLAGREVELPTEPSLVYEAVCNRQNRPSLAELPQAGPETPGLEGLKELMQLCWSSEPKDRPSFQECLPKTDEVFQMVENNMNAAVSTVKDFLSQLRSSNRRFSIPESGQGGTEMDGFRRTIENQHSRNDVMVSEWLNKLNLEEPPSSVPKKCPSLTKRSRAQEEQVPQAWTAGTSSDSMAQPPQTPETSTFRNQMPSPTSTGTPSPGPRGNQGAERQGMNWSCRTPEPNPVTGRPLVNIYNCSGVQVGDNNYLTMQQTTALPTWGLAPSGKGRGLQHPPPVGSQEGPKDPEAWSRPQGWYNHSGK
T1 sequence (P98170 whole entry): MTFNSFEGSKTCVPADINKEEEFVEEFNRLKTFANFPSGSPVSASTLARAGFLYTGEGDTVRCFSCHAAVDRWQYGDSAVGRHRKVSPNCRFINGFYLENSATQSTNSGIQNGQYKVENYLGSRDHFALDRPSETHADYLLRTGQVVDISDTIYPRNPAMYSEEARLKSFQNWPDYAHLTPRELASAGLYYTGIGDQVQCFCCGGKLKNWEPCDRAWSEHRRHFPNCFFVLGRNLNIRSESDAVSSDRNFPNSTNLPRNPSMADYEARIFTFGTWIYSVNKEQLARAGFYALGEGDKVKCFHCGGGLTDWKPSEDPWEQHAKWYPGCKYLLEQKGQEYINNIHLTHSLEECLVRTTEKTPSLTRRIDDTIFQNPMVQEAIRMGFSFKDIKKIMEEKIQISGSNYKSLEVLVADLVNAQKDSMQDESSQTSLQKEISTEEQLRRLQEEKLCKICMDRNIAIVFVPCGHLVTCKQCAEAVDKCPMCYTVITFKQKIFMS
T2 sequence (Q13490 whole entry): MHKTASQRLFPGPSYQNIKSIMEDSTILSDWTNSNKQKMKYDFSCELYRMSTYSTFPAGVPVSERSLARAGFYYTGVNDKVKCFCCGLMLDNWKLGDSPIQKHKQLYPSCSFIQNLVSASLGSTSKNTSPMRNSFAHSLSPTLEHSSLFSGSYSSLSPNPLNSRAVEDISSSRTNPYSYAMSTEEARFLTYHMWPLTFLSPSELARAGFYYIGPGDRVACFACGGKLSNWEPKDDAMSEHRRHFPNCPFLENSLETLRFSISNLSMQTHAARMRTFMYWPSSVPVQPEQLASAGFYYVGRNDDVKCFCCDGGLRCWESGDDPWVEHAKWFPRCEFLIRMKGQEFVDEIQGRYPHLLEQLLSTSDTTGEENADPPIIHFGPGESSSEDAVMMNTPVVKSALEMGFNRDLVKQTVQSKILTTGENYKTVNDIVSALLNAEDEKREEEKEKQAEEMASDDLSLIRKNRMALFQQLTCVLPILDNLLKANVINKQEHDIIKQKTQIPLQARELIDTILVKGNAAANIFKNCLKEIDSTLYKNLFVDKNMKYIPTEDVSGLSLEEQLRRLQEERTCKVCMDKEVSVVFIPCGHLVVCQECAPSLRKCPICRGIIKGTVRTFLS
T4 sequence (O43353 whole entry): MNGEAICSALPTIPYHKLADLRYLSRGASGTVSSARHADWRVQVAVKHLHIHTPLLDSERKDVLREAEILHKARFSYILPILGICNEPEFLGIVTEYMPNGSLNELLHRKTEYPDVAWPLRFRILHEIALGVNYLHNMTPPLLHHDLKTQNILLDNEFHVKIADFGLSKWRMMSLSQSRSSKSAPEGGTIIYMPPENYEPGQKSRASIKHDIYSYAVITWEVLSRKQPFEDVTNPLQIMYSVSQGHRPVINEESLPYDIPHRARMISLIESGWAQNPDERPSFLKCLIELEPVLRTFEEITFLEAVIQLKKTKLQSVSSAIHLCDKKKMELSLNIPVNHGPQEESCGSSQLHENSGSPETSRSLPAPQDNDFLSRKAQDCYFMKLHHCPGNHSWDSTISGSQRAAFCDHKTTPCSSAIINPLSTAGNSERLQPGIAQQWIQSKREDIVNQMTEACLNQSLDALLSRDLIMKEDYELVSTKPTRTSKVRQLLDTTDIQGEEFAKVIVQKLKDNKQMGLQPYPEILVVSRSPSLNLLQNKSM
T6 sequence (chain, as listed by the source limits assumed, chain 1 of 2, other chains not shown): as the sequence (O43353 whole entry) above

B1: anti-M1/anti-K63 bispecific antibody (bispecific antibody, V domains shown)
VH 1: EVQLVESGGGLVQPGGSLRLSCAASGFNVKTGLIHWVRQAPGKGLEWVAYITPYYGSTSYADSVKGRFTISADTSKNTAYLQMNSLRAEDTAVYYCAREYYRWYTAIDYWGQGTLVTVSS
VL 1: DIQMTQSPSSLSASVGDRVTITCRASQSVSSAVAWYQQKPGEAPKLLIYSARSLYSGVPSRFSGSRSGTDFTLTISSLQPEDFATYYCQQYSSYSSLFTFGQGTKVEIK
VH 2: EVQLVESGGGLVQPGGSLRLSCAASGFTFSNTYISWVRQAPGKGLEWVASITPSSGQTDYADSVKGRFTISADTSKNTAYLQMNSLRAEDTAVYYCARTWLLRWVMDLWGQGTLVTVSS
VL 2: DIQMTQSPSSLSASVGDRVTITCRASQDVSTAVAWYQQKPGKAPKLLIYSAKFLYSGVPSRFSGSGSGTDFTLTISSLQPEDFATYYCQQSYTTPPTFGQGTKVEIK
notes: also called K63-Lin; K63-linear ubiquitin chain bispecific antibody
no binding: RIP3 [1] | XIAP [2] | c-IAP1 [3] | RIP1

B2: anti-RIP1/anti-K63 bispecific antibody (bispecific antibody, human IgG1, kappa)
heavy 1: not shown
light 1: DIQMTQSPSSLSASVGDRVTITCRASQSVSSAVAWYQQKPGEAPKLLIYSARSLYSGVPSRFSGSRSGTDFTLTISSLQPEDFATYYCQQYSSYSSLFTFGQGTKVEIKRTVAAPSVFIFPPSDEQLKSGTASVVCLLNNFYPREAKVQWKVDNALQSGNSQESVTEQDSKDSTYSLSSTLTLSKADYEKHKVYACEVTHQGLSSPVTKSFNRGEC
heavy 2: not shown
light 2: NIMMTQSPSSLAVSAGQKVTMNCKSSQNVIYTSNQRNYLAWYQQKPGQSPKLLIYWASTRVSGVPDRFTGSGSGTDFTLTISSVEVEDLAVYYCHQYLSSWTFGGGTKVEIKRTVAAPSVFIFPPSDEQLKSGTASVVCLLNNFYPREAKVQWKVDNALQSGNSQESVTEQDSKDSTYSLSSTLTLSKADYEKHKVYACEVTHQGLSSPVTKSFNRGEC
notes: also called RIP1-K63; RIP1-K63 ubiquitin chain bispecific antibody
no binding: RIP2 | TRAF2 | RIP3 [4] | [5]

B3: anti-RIP1/anti-M1 bispecific antibody (bispecific antibody, human IgG1, kappa)
heavy 1: not shown
light 1: DIQMTQSPSSLSASVGDRVTITCRASQDVSTAVAWYQQKPGKAPKLLIYSAKFLYSGVPSRFSGSGSGTDFTLTISSLQPEDFATYYCQQSYTTPPTFGQGTKVEIKRTVAAPSVFIFPPSDEQLKSGTASVVCLLNNFYPREAKVQWKVDNALQSGNSQESVTEQDSKDSTYSLSSTLTLSKADYEKHKVYACEVTHQGLSSPVTKSFNRGEC
heavy 2: not shown
light 2: NIMMTQSPSSLAVSAGQKVTMNCKSSQNVIYTSNQRNYLAWYQQKPGQSPKLLIYWASTRVSGVPDRFTGSGSGTDFTLTISSVEVEDLAVYYCHQYLSSWTFGGGTKVEIKRTVAAPSVFIFPPSDEQLKSGTASVVCLLNNFYPREAKVQWKVDNALQSGNSQESVTEQDSKDSTYSLSSTLTLSKADYEKHKVYACEVTHQGLSSPVTKSFNRGEC
notes: also called RIP1-Lin; RIP1-Lin ubiquitin chain bispecific antibody
no binding: RIP2 | TRAF2 | RIP3 [1]

B4: anti-RIP2/anti-K63 bispecific antibody (bispecific antibody, human IgG1, kappa)
heavy 1: not shown
light 1: DIQMTQSPSSLSASVGDRVTITCRASQSVSSAVAWYQQKPGEAPKLLIYSARSLYSGVPSRFSGSRSGTDFTLTISSLQPEDFATYYCQQYSSYSSLFTFGQGTKVEIKRTVAAPSVFIFPPSDEQLKSGTASVVCLLNNFYPREAKVQWKVDNALQSGNSQESVTEQDSKDSTYSLSSTLTLSKADYEKHKVYACEVTHQGLSSPVTKSFNRGEC
heavy 2: not shown
light 2: not shown
notes: also called RIP2-K63
no binding: c-IAP1 [6] | XIAP [7]

B5: anti-RIP2/anti-M1 bispecific antibody (bispecific antibody, human IgG1, kappa)
heavy 1: not shown
light 1: DIQMTQSPSSLSASVGDRVTITCRASQDVSTAVAWYQQKPGKAPKLLIYSAKFLYSGVPSRFSGSGSGTDFTLTISSLQPEDFATYYCQQSYTTPPTFGQGTKVEIKRTVAAPSVFIFPPSDEQLKSGTASVVCLLNNFYPREAKVQWKVDNALQSGNSQESVTEQDSKDSTYSLSSTLTLSKADYEKHKVYACEVTHQGLSSPVTKSFNRGEC
heavy 2: not shown
light 2: not shown
notes: also called RIP2-Lin
no binding: XIAP [8] | c-IAP1 [9]
